Data from publication PMC6996891.

Biological target: attachment invasion locus (Ail) protein, wild type (Yersinia pestis)
Assay: native gel or EMSA

attachment invasion locus (Ail) protein, wild type (natural protein)
percent oligomers: 20%
